B1: fur seal ACE2, mFc-tagged (Fc fusion)
chain: RSTTEDLVKTFLEKFNSEAEELSYQSSFASWNYNTNITDENVQKMNDAGAKWSAFYEEQSKQAKTYPLEEIQDSTVKRQLQALQHSGSSVLSVDKSQRLNTILNAMSTIYSTGKACNPNNPQECLLLEPGLDDIMANSRDYNERLWAWEGWRSEVGKQLRPLYEEYVALKNEMARANNYEDYGDYWRGDYEEEWTNGYNYSRDQLIKDVEQTFTQIQPLYEHLHAYVRAKLMDTYPSHISPTGCLPAHLLGDMWGRFWTNLYPLTVPFGQKPNIDVTDTMVNQSWDARRIFEEAEKFFVSVGLPNMTQGFWENSMLTEPGDSRKVVCHPTAWDLGKHDFRIKMCTKVTMDDFLTAHHEMGHIQYDMAYAAQPFLLRNGANEGFHEAVGEIMSLSAATPKHLKNIGLLPPGFSEDNETDINFLFKQALTIVGTLPFTYMLEKWRWMVFKGEIPKEQWMKKWWEMKRDLVGVVEPLPHDETYCDPASLFHVANDYSFIRYYTRTIYQFQFQEALCQIAKHEGPLHKCDISNSSEAGQTLLQMLKLGRSKPWTLALYRVVGAKNMDVRPLLNYFDPLFTWLKEQNRNSFVGWNTDWSPYADQSIKVRISLKSALGEKAYEWNDNEMYLFRSSIAYAMREYFSKVKKQTIPFVEDNVWVNNLKPRISFTFFVTSPGNMSDIIPRADVEEAIRMSRGRINDAFRLDDNSLEFLGIQPTLEPPYQPPVT
B2: sea lion ACE2, mFc-tagged (Fc fusion)
chain: RSTTEDLVKTFLEKFNSEAEELSYQSSLASWNYNTNITDENVQKMNDAGAKWSAFYEEQSKQAKTYPLEEIQDSTVKRQLQALQHSGSSVLSADKSQRLNTILNAMSTIYSTGKACNPNNPQECLLLEPGLDDIMANSRDYNERLWAWEGWRSEVGKQLRPLYEEYVALKNEMARANNYEDYGDYWRGDYEEEWTNGYNYSRDQLIKDVEQTFTQIQPLYEHLHAYVRAKLMDTYPSHMSPTGCLPAHLLGDMWGRFWTNLYPLTVPFGQKPNIDVTDTMVNQSWDARRIFEEAEKFFVSVGLPNMTQGFWENSMLTEPGDSRKVVCHPTAWDLGKHDFRIKMCTKVTMDDFLTAHHEMGHIQYDMAYAAQPFLLRNGANEGFHEAVGEIMSLSAATPKHLKNIGLLPPGFSEDNETDINFLFKQALTIVGTLPFTYMLEKWRWMVFKGEIPKEQWMKKWWEMKRDLVGVVEPLPHDETYCDPASLFHVANDYSFIRYYTRTIYQFQFQEALCQIAKHEGPLHKCDISNSSEAGQTLLQMLKLGRSKPWTLALYRVVGAKNMDVRPLLNYFDPLFTWLKEQNRNSFVGWNTDWSPYADQSIKVRISLKSALGEKAYEWNDNEMYLFRSSIAYAMREYFSKVKNQMIPFVEDNVWVNNLKPRISFTFFVTSPGNMSDIIPRADVEEAIRMSRGRINDAFRLDDNSLEFLGIQPTLEPPYQPPVT
B3: minke whale ACE2, mFc-tagged (Fc fusion)
chain: QSTTEEQAKTFLQKFDHEAEDLSYRSSLASWNYNTNITDENVQKMNAARAKWSAFYEEQSRIAKTYPLEEIQNLTLKRQLQALQQSGTSVLSADKSKRLNTILNTMSTIYSSGKVLDPNTQEYLVLEPGLDDIMENSEDYNRRLWAWEGWRAEVGKQLRPFYEEYVVLENEMARANNYEDYGDYWRGDYEVTGADGYDYSRNQLIADVERTFAEIKPLYEQLHAYVRAKLMDAYPSRISPTGCLPAHLLGDMWGRFWTNLYPLTVPFGEKPSIDVTKEMQNQSWDAKRIFKEAEKFFVSIGLPNMTQEFWVNSMLTEPGDGRKVVCHPTAWDLGKGDFRIKMCTKVTMDDFLTAHHEMGHIQYDMAYATQPFLLRNGANEGFHEAVGEIMSLSAATPHYLKALGLLPPDFYEDNVTEINFLLKQALQIVGTLPFTYMLEKWRWMVFKGEIPKEQWMQKWWEMKREIVGVVEPLPHDETYCDPACLFHVAEDYSFIRYYTRTIYQFQFHEALCQTAKHEGPLYKCDISNSTEAGQRLLQMLHLGKSEPWTLALENIVGVKTMDVKPLLNYFEPLLTWLKEQNRNSPVGWSTDWTPYSDQSIKVRISLKSALGEKAYEWNDNEMYLFQSSVAYAMREYFSKVRNETIPFGEKDVWVSDLKPRISFNFFVTTPKNVSDIIPRTEVEEAIRMSRGRINDAFRLDDNSLEFLGIQPTLGPPYEPPVT
B4: dolphin ACE2, mFc-tagged (Fc fusion)
chain: QSATEERAKTFLQKFDREAEDLSYQSSLASWNYNTNITDENVQKMNAAGAKWSAFYEEQSRIAKTYPLEEIRNLTLKRQLQVLQQSGTSVLSADKSKRLNAILSTMSTIYSSGKVLDPNTQESLVLEPGLDDIMENSKDYNRRLWAWEGWRAEVGKQLRPLYEEYVVLENEMARANNYEDYGDYWRGDYEVTGAGDYDYSRDQLIRDVERTFAEIKPLYEQLHAYVRAKLMDAYPSRISPTGCLPAHLLGDMWGRFWTNLYPLTVPFGERPSIDVTKEMQNQSWDAKRIFKEAEKFFVSIGLPNMTQGFWDNSMLTEPGDGRKVVCHPTAWDLGKGDFRIKMCTKVTMDDFLTAHHEMGHIQYDMAYATQPYLFRNGANEGFHEAVGEIMSLSAATPHYLKALGLLPPDFYEDSATEINFLLKQALTIVGTLPFTYMLEKWRWMVFKGEIPKEQWMQKWWEMKREIVGVVEPLPHDETYCDPACLFHVAEDYSFIRYYTRTIYQFQFHEALCQTAKHEGPLYKCDISNSTEAGQRLLQMLHLGKSEPWTSALERIVGVKTMDVKPLLNYFEPLLTWLKGQNRNSFVGWRTDWTPYSNQSIKVRISLKSALGEKAYEWNDNEMYLFRSSVAYAMREYFSKVRNKTIPFGEKDVWVSDLKPRISFNFFVTSPKNMSDIIPRTEVEEAIRMSRGRINDAFRLDDSSLEFLGVQPTLAPPYEPPVT
B5: sperm whale ACE2, mFc-tagged (Fc fusion)
chain: QSTTEEQAKTFLQKFDHEAEDLSYQSSLASWNYNTNITDENVQKMNAARAKWSAFYEEQSRTAKTYPLEEIQNLTLKRQLQALQQSGTSVLSADKSKRLNTILNTMSTIYSSGKVLDPNTQECLVLEPGLDDIMENSEDYSRRLWAWEAWRAEVGKQLRPLYEEYVVLENEMARANNYEDYGDYWRGDYEVTGAGDYDYSRDQLITDVERTFAEIKPLYEQLHAYVRAKLMDAYPSRISPTGCLPAHLLGDMWGRFWTNLYPLTVPFGEKSSIDVTKEMRNQSWDAKRIFKEAEKFFVSIGLPNMTQEFWDNSMLTEPGDGRKVVCHPTAWDLGKGDFRIKMCTKVTMDDFLTARHEMGHIQYDMAYATQPYLLRNGANEGFHEAVGEIMSLSAATPHYLKALGLLPPDFYEDSATEINFLLKQALKIVGTLPFTYMLEKWRWMVFKGEIPKEQWMQKWWEMKREIVGVVEPLPHDETYCDPACLFHVAEDYSFIRYYTRTIYQFQFHEALCQAAKHEGPLYKCDISNSTEAGQRLLQMLHLGKSEPWTSALENIVGVKTMDVKPLLNYFEPLLTWLKDQNRNSFVGWSTDWTPYSDQSIKVRISLKSALGEKAYEWNDNEMYLFRSSVAYAMREYFSKVRNETIPFGEEDVRVGDLKPRISFTFFVTSPKNVSDIIPRTEVEEAIRMSRGRINDAFRLDDNSLEFLGIEPTLGPPYEPPVT

Molecular target: SARS-CoV-2 receptor-binding domain (RBD), prototype (SARS-CoV-2, UniProt P0DTC2)
Test: SPR

Row | Binder | Kd
1 | B1 | 129 nM
2 | B2 | 171 nM
3 | B3 | 175 nM
4 | B4 | 562 nM
5 | B5 | 234 nM
